{
  "source": "patent US20160311886A1",
  "about": "“Constructs Binding to Phosphatidylserine and Their Use in Disease Treatment and Imaging” (Board of Regents, The University of Texas System, priority 2005, published 2016)",
  "key": {"[1]": {"tested_on": "cancer patients having progressive disease", "settings": "human, in vivo; cited from earlier work"}, "[2]": {"settings": "in vivo; cited from earlier work"}, "[3]": {"tested_on": "ABAE cells with exposed PS", "assay": "Live-cell binding assay on LPC-treated endothelial cells", "format": "cell-based, bovine", "description": "Adult bovine aortic endothelial (ABAE) cells were maintained in DMEM supplemented with 10% FBS and 2 mM L-glutamine. ABAE cells were removed from subconfluent cultures by brief exposure to 0.25% trypsin/0.02% EDTA, and 8-well chamber slides were seeded with 2×10^4 cells/well. Following overnight culture, cells were washed gently with PBS and treated with 200 μM lysophosphatidylcholine (LPC) to induce PS exposure.\nPS exposure was determined by immunofluorescence staining. Cells were washed thoroughly in PBS, fixed in 4% paraformaldehyde (w/v), and incubated with a biotin-conjugated anti-mouse secondary antibody. Next, cells were incubated with FITC-conjugated streptavidin (Jackson Immunoresearch) to detect antibody binding. Cells were then permeablized with 0.1% Triton-X100 in PBS and counterstained with Texas Red-conjugated phalloidin (Molecular Probes, Eugene, Oreg.), and 4′, 6-diamidino-2-phenylindole (DAPI; Molecular Probes). Images were captured using a Coolsnap digital camera (Photometrics, Tucson, Ariz.) mounted on a Nikon microscope and processed with MetaVue software (Universal Imaging Corporation, Downingtown, Pa.).\nThe area of antibody binding was determined using MetaVue image analysis software, which is able to quantify the number of illuminated pixels in an image. Images of FITC fluorescence were used to quantify antibody binding. Corresponding images of DAPI fluorescence were used to normalize the FITC images for the number of cells present in the field. A small FITC/DAPI ratio indicates a small antibody binding area, whereas a large FITC/DAPI ratio indicates a large binding area. The FITC/DAPI ratios were used to determine increases or decreases in antibody binding area relative to a basal amount of antibody binding under the selected conditions. Five images at 200× magnification were used for each analysis. Data are presented as average relative FITC/DAPI ratios with error bars representing the standard deviation.\nCells were then washed, fixed, and stained with fluorescent markers to visualize binding of antibody to the cell surface."}, "[4]": {"tested_on": "ABAE cells with exposed PS", "assay": "Binding of monomeric and dimeric hβ2GPI to LPC-treated cells", "format": "cell-based, bovine", "settings": "200 μM LPC, DMEM+10% FBS", "description": "FIG. 24A, FIG. 24B, FIG. 24C and FIG. 24D. An artificial dimeric β2GPI construct binds endothelial cells with exposed PS. ABAE cells were incubated for 30 min with 200 μM LPC in DMEM+10% FBS plus purified hβ2GPI-monomer (FIG. 24A), hβ2GPI-dimer (FIG. 24B), or a mutant hβ2GPI-dimer unable to bind lipid (FIG. 24C). Cells were then washed and incubated with anti-β2GPI to detect hβ2GPI monomers and dimers. […] Cells were then washed, fixed and stained with fluorescent markers. The cytoskeleton appears red, nuclei appear blue, and hβ2GPI-monomers and hβ2GPI-dimers appear green. FIG. 24D, the binding area of hβ2GPI-monomers and hβ2GPI-dimers was quantified using MetaVue software. All values are relative to the binding of hβ2GPI-dimers to non-LPC treated cells, which was set to one.\nIn these studies, an artificial β2GPI dimer is used, which was generated by fusing hβ2GPI to the C-terminus of the apple 4 dimerization domain of factor XI (Lutters et al., 2001). […] Nonetheless, binding of this dimer to cells with exposed PS validates the use of Fc-β2GPI dimers to bind to PS-positive cells.\nABAE cells were treated with LPC to induce PS exposure and incubated with purified hβ2GPI, hβ2GPI-dimer, or a mutant hβ2GPI-dimer containing a disrupted lipid binding domain. As expected, binding of the monomeric hβ2GPI to LPC-treated ABAE cells was negligible (FIG. 24A)."}, "[5]": {"assay": "Fc-mβ2GPI binding to phospholipids in 10% FBS", "description": "FIG. 21. Fc-mβ2GPI binds anionic phospholipids. This assay measures Fc-mβ2GPI binding to phospholipids in 10% FBS. The microtiter plates were coated with various lipids, as indicated, and blocked with 1% OVA. Serial dilutions of Fc-mβ2GPI cell culture supernatant were performed in 1% OVA. Binding was detected with anti-mouse IgG-HRP."}, "[6]": {"assay": "Fc-mβ2GPI binding to PS-coated plates", "settings": "cell culture supernatants #8 and #18", "description": "FIG. 20. Fc-mβ2GPI binds PS on PS-coated plates. In this binding assay, a microtiter plate was coated with PS and blocked with 1% OVA. Serial dilutions of Fc-mβ2GPI cell culture supernatants were performed in 1% OVA. #8 and #18 are two different clones of Fc-mβ2GPI. Binding was detected with anti-mouse IgG-HRP.\nFc-mβ2GPI was able to bind to PS on PS-coated plates."}, "ABAE cells": {"tested_on": "ABAE cells", "assay": "Fc-mβ2GPI binding to cells with exposed PS", "format": "cell-based, bovine", "description": "FIG. 22A, FIG. 22B and FIG. 22C. Fc-mβ2GPI detects PS exposed on naturally apoptotic ABAE cells. 2×10^4 ABAE cells were seeded onto 8-well glass chamber slides in DMEM+10% FBS overnight at 37° C. The next day, cells were washed and incubated with 2aG4 (FIG. 22A), supernatant from Fc-mβ2GPI transfected CHO cells (FIG. 22B), or mock transfected cells (“control supernatant”, FIG. 22C). 2aG4 and Fc-mβ2GPI were detected with a FITC-labeled secondary antibody (green). The cytoskeletons and nuclei were counter-stained with Texas Red-labeled phalloidin and DAPI (blue), respectively. Arrows highlight apoptotic cells.\nFIG. 23A and FIG. 23B. Fc-mβ2GPI detects PS exposed on LPC-treated ABAE cells. 2×10^4 ABAE cells were seeded onto 8-well glass chamber slides in DMEM+10% FBS overnight at 37° C. The next day, cells were washed and incubated supernatant from Fc-mβ2GPI transfected CHO cells. Fc-mβ2GPI was detected with a FITC-labeled secondary antibody (green). The cytoskeletons and nuclei were counter-stained with Texas Red-labeled phalloidin and DAPI (blue), respectively. FIG. 23A and FIG. 23B each depict binding of Fc-mβ2GPI, seen as small pinpoints of green staining."}},
  "data": [
    {"molecule": "NC(=O)c1nnn(Cc2cc(Cl)c(C(=O)c3ccc(Cl)cc3)c(Cl)c2)c1N", "note": "[CAI, carboxyamidotriazole]", "values": [
      {"measurement": "patients with disease stabilization", "setting": "[1]", "result": 49, "unit": "%"}
    ]},
    {"molecule": "monophosphoryl lipid A [MPL]", "values": [
      {"measurement": "dose shown to be safe for human use", "setting": "[2]", "result": 100, "unit": "μg/m^2"}
    ]},
    {"molecule": "hβ2GPI: Human β2GPI purified from human plasma (protein) GRTCPKPDDLPFSTVVPLKTFYEPGEEITYSCKPGYVSRGGMRKFICPLTGLWPINTLKCTPRVCPFAGILENGAVRYTTFEYPNTISFSCNTGFYLNGADSAKCTEEGKWSPELPVCAPIICPPPSIPTFATLRVYKPSAGNNSLYRDTAVFECLPQHAMFGNDTITCTTHGNWTKLPECREVKCPFPSRPDNGFVNYPAKPTLYYKDKATFGCHDGYSLDGPEEIECTKLGNWSAMPSCKASCKLPVKKATVVYQGERVKIQEKFKNGMLHGDKVSFFCKNKEKKCSYTEDAQCIDGTIEVPKCFKEHSSLAFWKTDASDVKPC", "values": [
      {"measurement": "mediation of ch3G4 binding to ABAE cells with exposed PS", "setting": "[3]; 2 μg/ml, LPC", "result": "able to mediate binding"},
      {"measurement": "binding to endothelial cells with exposed PS", "setting": "[3]; 10% MS and LPC, absence of ch3G4", "result": "does not bind endothelial cells with exposed PS in the absence of ch3G4"},
      {"measurement": "binding to LPC-treated ABAE cells", "setting": "[4]", "result": "negligible"}
    ]},
    {"molecule": "Fc-mβ2GPI: Fc region of mouse IgG2a attached to full length mouse β2GPI (domains I-V); SEQ ID NO:19 (protein, listed as Mus musculus) EPRGPTIKPCPPCKCPAPNLLGGPSVFIFPPKIKDVLMISLSPIVTCVVVDVSEDDPDVQISWFVNNVEVHTAQTQTHREDYNSTLRVVSALPIQHQDWMSGKEFKCKVNNKDLPAPIERTISKPKGSVRAPQVYVLPPPEEEMTKKQVTLTCMVTDFMPEDIYVEWTNNGKTELNYKNTEPVLDSDGSYFMYSKLRVEKKNWVERNSYSCSVVHEGLHNHHTTKSFSRTPGKTGGRICPKPDDLPFATVVPLKTSYDPGEQIVYSCKPGYVSRGGMRRFTCPLTGMWPINTLRCVPRVCPFAGILENGIVRYTSFEYPKNISFACNPGFFLNGTSSSKCTEEGKWSPDIPACARITCPPPPVPKFALLKDYRPSAGNNSLYQDTVVFKCLPHFAMIGNDTVMCTEQGNWTRLPECLEVKCPFPPRPENGYVNYPAKPVLLYKDKATFGCHETYKLDGPEEAECTKTRTWSFLPTCRESCKLPVKKATVLYQGMRVKIQEQFKNGMMHGDKIHFYCKNKEKKCSYTVEAHCRDGTIEIPSCFKEHSSLAFWKTDASELTPC", "values": [
      {"measurement": "binding to phospholipids", "setting": "[5]", "result": "binds to the anionic phospholipids PS, PA, PI and PG, but not to the neutral lipids, PC and SM"},
      {"measurement": "binding to PS on PS-coated plates", "setting": "[6]", "result": "bind to PS in a concentration-dependent manner"},
      {"measurement": "binding to LPC-treated ABAE cells", "setting": "ABAE cells", "result": "bind to PS exposed at the cell surface"},
      {"measurement": "staining of naturally apoptotic ABAE cells", "setting": "ABAE cells", "result": "stain the apoptotic cells"}
    ]}
  ]
}
